Legend:
[1] = molecular target: plasma membrane bound human c-Kit expressed by human tumor cells (Mo7e; also Malm-3M) (human, UniProt P10721 26-976); test: cell-based or functional assay
[2] = molecular target: T1, plasma membrane bound mouse (p815) c-Kit expressed by mouse tumor cells (p815) (mouse, UniProt P05532 25-979); test: flow cytometry on whole live P815 cells
T1 construct: whole, on cells; also called c-Kit on P815 cells
Procedure: Species specificity of c-Kit mAbs can be further tested for their binding to plasma membrane bound c-Kit expressed on the surface of human Mo7e and mouse P815 cells based on the flow cytometry analysis (see, e.g., WO2004/007735). Briefly, whole, live human Mo7e and mouse P815 cells are serum starved overnight, washed 3 times in cold blocking buffer (5% FBS in PBS), and then resuspended in 100 μl of blocking buffer. An anti-c-Kit antibody is added at 1.0 μg/ml and the mixture is incubated for 30 minutes at 4° C. A secondary fluorescence-conjugated antibody (Jackson ImmunoResearch) is added at 1.0 μg/ml to detect human antibody bound to the cell surface via flow cytometry analysis.

[3] = molecular target: T2, recombinant mouse c-Kit (rm-c-Kit; Gln26-Thr519) (R&D Systems) (mouse, UniProt P05532 26-519); test: ELISA, plate coated with rm-c-Kit 1 ug/ml
T2 construct: also called mouse c-Kit (1.0 ug/ml)
T2 sequence (looked up): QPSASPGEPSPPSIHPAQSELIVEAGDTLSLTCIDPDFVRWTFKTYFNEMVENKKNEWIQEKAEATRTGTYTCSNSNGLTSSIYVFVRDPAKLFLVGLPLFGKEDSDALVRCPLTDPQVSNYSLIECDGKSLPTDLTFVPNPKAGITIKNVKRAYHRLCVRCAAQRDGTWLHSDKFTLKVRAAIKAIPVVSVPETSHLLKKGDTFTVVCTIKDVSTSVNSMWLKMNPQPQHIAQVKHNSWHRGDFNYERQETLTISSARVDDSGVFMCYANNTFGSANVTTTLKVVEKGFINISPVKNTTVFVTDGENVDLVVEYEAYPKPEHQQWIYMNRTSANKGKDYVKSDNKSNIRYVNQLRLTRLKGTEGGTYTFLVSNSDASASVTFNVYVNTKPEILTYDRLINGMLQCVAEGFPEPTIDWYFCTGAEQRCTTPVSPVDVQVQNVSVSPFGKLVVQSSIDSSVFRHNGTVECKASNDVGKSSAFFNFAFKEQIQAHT
Procedure: (§1) The species binding specificity of anti-human c-Kit mAbs can be determined by measuring the reactivity of the antibodies to human, cynomolgus, and mouse c-Kit proteins in an ELISA. […] Following washes, wells are blocked with 3% PBS/milk. Serial dilutions of human anti-human-c-Kit mAbs are then added to the c-Kit-coated wells and allowed to incubate for two hours at room temperature. Following several washes, a 1:1000 dilution of anti-human IgG-HRP conjugated antibody is added to the plates for one hour at room temperature in order to detect bound human antibody. Plates are washed and HRP substrate is added to each well and incubated until blue color is developed. Stop solution is added and absorbance is measured at 450 nm.

[4] = molecular target: T3, cynomolgus c-Kit (cyno-c-Kit; Met1-His549 prepared recombinantly) (cynomolgus); test: ELISA, plate coated with cyno-c-Kit 1 ug/ml
T3 construct: The printed range starts at Met1, so it includes the signal peptide of the expressed construct; also called cynomologus c-Kit; cynomolgus c-Kit (1.0 ug/ml)
Procedure: as §1

[5] = molecular target: T4, recombinant human c-Kit (rh-c-Kit) protein (R&D Systems) (human, UniProt P10721 26-520, limits assumed); test: SPR (BIAcore), rh-c-kit immobilized on CM5 chip, 25 C
T4 construct: also called human c-Kit protein; human c-Kit (1.0 ug/ml)
T4 sequence (P10721 26-520 limits assumed): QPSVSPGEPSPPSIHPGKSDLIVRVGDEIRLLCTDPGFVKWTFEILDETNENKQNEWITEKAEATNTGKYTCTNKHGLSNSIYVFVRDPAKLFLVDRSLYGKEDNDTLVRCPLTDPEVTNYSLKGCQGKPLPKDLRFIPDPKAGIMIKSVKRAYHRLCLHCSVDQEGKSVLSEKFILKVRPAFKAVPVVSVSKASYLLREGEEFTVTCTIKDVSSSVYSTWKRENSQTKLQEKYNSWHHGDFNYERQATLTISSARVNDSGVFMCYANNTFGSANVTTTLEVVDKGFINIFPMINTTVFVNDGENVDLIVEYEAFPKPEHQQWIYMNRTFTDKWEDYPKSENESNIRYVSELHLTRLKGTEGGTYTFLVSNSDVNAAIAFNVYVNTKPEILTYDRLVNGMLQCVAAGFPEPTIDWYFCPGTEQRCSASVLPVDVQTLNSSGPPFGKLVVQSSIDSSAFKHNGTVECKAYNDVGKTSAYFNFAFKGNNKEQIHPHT

[6] = molecular target: T4, recombinant human c-Kit (rh-c-Kit) …; test: ELISA, plate coated with rh-c-Kit 1 ug/ml, anti-human IgG-HRP detection
Procedure: Following washes, wells are blocked with 3% PBS/milk. […] Plates are washed and HRP substrate is added to each well and incubated until blue color is developed. Stop solution is added and absorbance is measured at 450 nm.

[7] = molecular target: T4, recombinant human c-Kit (rh-c-Kit) …; test: blocking ELISA: CK6 pre-incubated with rh-c-Kit, added to SCF-coated wells
Procedure: Purified mAbs can be also tested for their ability to block the binding of c-Kit and its ligand. […] Following washes, wells are blocked with 3% PBS/milk. […] Following several washes (3-5), a 1:1000 dilution of anti-human IgG-HRP conjugated antibody is added to the plates for one hour at room temperature. Plates are washed in 0.2% Tween-PBS and HRP substrate is added to each well and incubated until blue color is developed. Stop solution is added and absorbance is measured at 450 nm.

Sequence of plasma membrane bound human c-Kit expressed by human tumor cells (Mo7e; also Malm-3M) (P10721 26-976): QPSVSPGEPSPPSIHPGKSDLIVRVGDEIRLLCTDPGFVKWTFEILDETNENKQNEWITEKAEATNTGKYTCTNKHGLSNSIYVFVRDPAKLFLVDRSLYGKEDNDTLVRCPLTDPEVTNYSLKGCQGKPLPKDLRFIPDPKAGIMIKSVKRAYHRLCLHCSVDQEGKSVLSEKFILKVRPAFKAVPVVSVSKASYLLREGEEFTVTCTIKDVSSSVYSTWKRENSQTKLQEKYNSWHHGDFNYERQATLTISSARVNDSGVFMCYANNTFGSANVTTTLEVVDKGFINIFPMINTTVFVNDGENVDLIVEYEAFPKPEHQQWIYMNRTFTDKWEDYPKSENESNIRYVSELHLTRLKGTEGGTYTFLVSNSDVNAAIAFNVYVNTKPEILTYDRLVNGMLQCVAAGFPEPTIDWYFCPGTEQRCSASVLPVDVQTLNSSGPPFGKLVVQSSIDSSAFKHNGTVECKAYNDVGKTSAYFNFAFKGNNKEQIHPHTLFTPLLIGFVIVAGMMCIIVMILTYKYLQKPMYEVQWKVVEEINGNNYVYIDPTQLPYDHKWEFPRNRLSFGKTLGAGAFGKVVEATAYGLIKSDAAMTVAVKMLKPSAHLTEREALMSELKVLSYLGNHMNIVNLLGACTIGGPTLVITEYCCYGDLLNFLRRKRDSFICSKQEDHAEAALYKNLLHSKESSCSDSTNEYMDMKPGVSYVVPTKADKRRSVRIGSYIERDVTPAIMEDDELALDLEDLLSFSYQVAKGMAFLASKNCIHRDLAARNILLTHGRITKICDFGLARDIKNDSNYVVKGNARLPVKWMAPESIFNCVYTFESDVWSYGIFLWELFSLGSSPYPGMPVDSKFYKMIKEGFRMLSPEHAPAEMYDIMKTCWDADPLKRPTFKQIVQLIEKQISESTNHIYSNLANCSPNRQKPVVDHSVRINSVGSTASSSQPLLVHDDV
T1 sequence (P05532 25-979): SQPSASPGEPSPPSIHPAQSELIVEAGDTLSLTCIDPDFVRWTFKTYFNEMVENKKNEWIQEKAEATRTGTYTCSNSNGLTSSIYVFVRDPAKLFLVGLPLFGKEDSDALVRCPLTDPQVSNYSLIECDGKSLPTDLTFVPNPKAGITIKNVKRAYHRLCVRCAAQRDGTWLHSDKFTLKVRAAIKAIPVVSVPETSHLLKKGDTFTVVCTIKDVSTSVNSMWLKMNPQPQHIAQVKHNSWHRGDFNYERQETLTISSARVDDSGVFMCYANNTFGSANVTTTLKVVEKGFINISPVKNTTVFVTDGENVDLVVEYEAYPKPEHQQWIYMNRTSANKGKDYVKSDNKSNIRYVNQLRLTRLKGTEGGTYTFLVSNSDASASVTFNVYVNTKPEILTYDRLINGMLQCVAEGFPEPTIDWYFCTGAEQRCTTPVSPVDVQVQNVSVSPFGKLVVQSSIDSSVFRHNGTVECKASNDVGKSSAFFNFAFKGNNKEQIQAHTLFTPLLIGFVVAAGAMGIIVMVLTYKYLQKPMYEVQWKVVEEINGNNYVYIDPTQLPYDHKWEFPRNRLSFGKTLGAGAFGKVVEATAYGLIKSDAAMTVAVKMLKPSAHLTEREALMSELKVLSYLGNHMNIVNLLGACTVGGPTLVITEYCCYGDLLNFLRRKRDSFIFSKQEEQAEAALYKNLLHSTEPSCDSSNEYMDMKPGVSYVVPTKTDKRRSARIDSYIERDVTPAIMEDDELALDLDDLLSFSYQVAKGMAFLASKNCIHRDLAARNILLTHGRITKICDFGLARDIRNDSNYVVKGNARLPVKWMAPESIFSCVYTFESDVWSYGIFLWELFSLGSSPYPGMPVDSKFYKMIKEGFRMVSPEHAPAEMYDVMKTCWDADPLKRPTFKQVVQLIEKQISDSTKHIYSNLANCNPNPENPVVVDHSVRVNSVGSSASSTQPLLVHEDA

IC50 of inhibition of c-Kit and MAPK phosphorylation in response to SCF in Mo7e ('Mole') leukemia cells, western blot [1]: 0.3 nM | binding result [2]: no binding (tested: 1.0 µg/ml) | binding result [3]: no binding | EC50 [4]: 0.057 nM | Kd [5]: 0.066 nM | EC50 [6]: ~0.03 nM | IC50 [7]: ~0.04 nM
B1: anti-human c-Kit monoclonal antibody CK6 (antibody, human IgG1, kappa, V domains shown)
VH: QVQLVQSGAAVKKPGESLKISCKGSGYRFTSYWIGWVRQMPGKGLEWMGIIYPGDSDTRYSPSFQGQVTISAGKSISTAYLQWSSLKASDTAMYYCARHGRGYNGYEGAFDIWGQGTMVTVSS
VL: AIQLTQSPSSLSASVGDRVTITCRASQGISSALAWYQQKPGKAPKLLIYDASSLESGVPSRFSGSGSGTDFTLTISSLQPEDFATYYCQQFNSYPLTFGGGTKVEIKR
notes: also called mAb CK6; anti-c-Kit mAb CK6

Reference: US20120288506A1 (Eli Lilly, published 2012)
